Test results from publication PMC3899027.
Values joined by “and” are separate entries in the source; they are usually repeats but may differ in a detail not shown here. Equal entries are not always repeated. Blank lines part the entries; values can stand above or below the substance they belong to.

Assays:
[1] = biological target: AgR (Rhizobium NT-26); assay: SEC; Superose 6; 50 mM Tris-HCl pH 8.0, 30-500 mM NaCl, 1 mM βME; peak positions invariant irrespective of loading concentrations
[2] = biological target: ExsG phosphorylated on Asp62 by phosphoramidate (Rhizobium NT-26); assay: native MS; nESI-MS and IM-MS; 150 mM ammonium acetate pH 8, 0.1 mM DTT; 30-40 μM (monomer); native, phosphoramidate-treated or AMP-PNP-treated samples
[3] = biological target: ExsG receiver domain (ExsG-REC, residues 1-129) (Rhizobium NT-26); assay: SEC; Superose 6; 50 mM Tris-HCl pH 8.0, 30-500 mM NaCl, 1 mM βME; peak positions invariant irrespective of loading concentrations
[4] = biological target: BphP1 kinase core (BphP1-HK, residues 462-703) (Rhizobium NT-26); assay: as above
[5] = biological target: ExsG (wild-type, full-length) (Rhizobium NT-26); assay: native MS; nESI-MS at raised ionic strength: 400, 600 and 800 mM ammonium acetate pH 8, 0.1 mM DTT; 30-40 μM (monomer); disassembly of the hexamer
[6] = biological target: ExsG (wild-type, full-length) (Rhizobium NT-26); assay: AUC; sedimentation equilibrium; 50 mM Tris-HCl pH 8.0, 250 mM NaCl; six concentrations 0.1-1.5 mg/ml; 7, 11, 16, 24 krpm, 20°C; SEDFIT and SEDPHAT
[7] = biological target: ExsG (wild-type, full-length) (Rhizobium NT-26); assay: AUC; sedimentation velocity; 50 mM Tris-HCl pH 8.0, 250 mM or 30 mM NaCl; seven concentrations 0.2-2 mg/ml; 40,000 rpm, 20°C; c(s) in SEDFIT
[8] = biological target: ExsG (wild-type, full-length) (Rhizobium NT-26); assay: native MS; nESI-MS and IM-MS; 150 mM ammonium acetate pH 8, 0.1 mM DTT; 30-40 μM (monomer); native, phosphoramidate-treated or AMP-PNP-treated samples
[9] = biological target: ExsG (wild-type, full-length) (Rhizobium NT-26); assay: as above; remark: listed apart in the source

stoichiometry N [2]: 6
Substance: ExsG phosphorylated on Asp62 by phosphoramidate (enzyme)

stoichiometry N [4]: 2
Substance: BphP1 kinase core (BphP1-HK, residues 462-703) (domain or fragment)

stoichiometry N [5]: 2 and 4
stoichiometry N [6]: 6
stoichiometry N [7]: 6
stoichiometry N [8]: 6
stoichiometry N [9]: 2
Substance: ExsG (wild-type, full-length) (enzyme)

The next lines start with the substance.

Substance: AgR (natural protein)
stoichiometry N [1]: 2

Substance: ExsG receiver domain (ExsG-REC, residues 1-129) (domain or fragment)
stoichiometry N [3]: 2
